Measurements reported in FireProtDB (doi:10.1093/protein/12.10.841).

B1: Lysozyme C, P61626 (parent)
chain: MKALIVLGLVLLSVTVQGKVFERCELARTLKRLGMDGYRGISLANWMCLAKWESGYNTRATNYNAGDRSTDYGIFQINSRYWCNDGKTPGAVNACHLSCSALLQDNIADAVACAKRVVRDPQGIRAWVAWRNRCQNRDVRQYVQGCGV

Variants of: B1
Details: Homo sapiens; pH 2.51; Thermal; DSC; glycine 0.05 M; reversible: yes; structure 1LZ1; whole UniProt chain shown

Variant	Tm	heat capacity change of unfolding	unfolding enthalpy (calorimetric)	unfolding enthalpy (van 't Hoff)
MKALIVLGLVLLSVTVQGKVFERCELARTLKRLGMDGYRGISLANWMCLAKWESGYNTRATNYNAGDRSTDYGIFQLNSRYWCNDGKTPGAVNACHLSCSALLQDNIADAVACAKRVVRDPQGIRAWVAWRNRCQNRDVRQYVQGCGV [I77L]	61.4 °C	1.12 kcal/mol/K	109 kcal/mol	117 kcal/mol

Same assay, conditions: Homo sapiens; pH 2.66; Thermal; DSC; glycine 0.05 M; reversible: yes; structure 1LZ1; whole UniProt chain shown

Variant	Tm	heat capacity change of unfolding	unfolding enthalpy (calorimetric)	unfolding enthalpy (van 't Hoff)
MKALIVLGLVLLSVTVQGKVFERCELARTLKRLGMDGYRGISLANWMCLAKWESGYNTRATNYNAGDRSTDYGIFQLNSRYWCNDGKTPGAVNACHLSCSALLQDNIADAVACAKRVVRDPQGIRAWVAWRNRCQNRDVRQYVQGCGV [I77L]	64.5 °C	1.17 kcal/mol/K	113 kcal/mol	122 kcal/mol

Same assay, conditions: Homo sapiens; pH 2.7; 64.9 °C; Thermal; DSC; glycine 0.05 M; reversible: yes; structure 1LZ1; whole UniProt chain shown

Variant	ddG of mutation (higher = less stable)
MKALIVLGLVLLSVTVQGKVFERCELARTLKRLGMDGYRGISLANWMCLAKWESGYNTRATNYNAGDRSTDYGIFQLNSRYWCNDGKTPGAVNACHLSCSALLQDNIADAVACAKRVVRDPQGIRAWVAWRNRCQNRDVRQYVQGCGV [I77L]	0 kcal/mol

Same assay, conditions: Homo sapiens; pH 2.7; Thermal; DSC; glycine 0.05 M; reversible: yes; structure 1LZ1; whole UniProt chain shown

Variant	Tm	change of melting temperature, mutant - wild type (higher = more stable)	heat capacity change of unfolding	unfolding enthalpy (calorimetric)	unfolding enthalpy (van 't Hoff)
MKALIVLGLVLLSVTVQGKVFERCELARTLKRLGMDGYRGISLANWMCLAKWESGYNTRATNYNAGDRSTDYGIFQLNSRYWCNDGKTPGAVNACHLSCSALLQDNIADAVACAKRVVRDPQGIRAWVAWRNRCQNRDVRQYVQGCGV [I77L]	64.9 °C	0 °C	1.27 kcal/mol/K	114 kcal/mol	122 kcal/mol

Same assay, conditions: Homo sapiens; pH 2.83; Thermal; DSC; glycine 0.05 M; reversible: yes; structure 1LZ1; whole UniProt chain shown

Variant	Tm	heat capacity change of unfolding	unfolding enthalpy (calorimetric)	unfolding enthalpy (van 't Hoff)
MKALIVLGLVLLSVTVQGKVFERCELARTLKRLGMDGYRGISLANWMCLAKWESGYNTRATNYNAGDRSTDYGIFQLNSRYWCNDGKTPGAVNACHLSCSALLQDNIADAVACAKRVVRDPQGIRAWVAWRNRCQNRDVRQYVQGCGV [I77L]	67 °C	1.17 kcal/mol/K	116 kcal/mol	126 kcal/mol

Same assay, conditions: Homo sapiens; pH 2.96; Thermal; DSC; glycine 0.05 M; reversible: yes; structure 1LZ1; whole UniProt chain shown

Variant	Tm	heat capacity change of unfolding	unfolding enthalpy (calorimetric)	unfolding enthalpy (van 't Hoff)
MKALIVLGLVLLSVTVQGKVFERCELARTLKRLGMDGYRGISLANWMCLAKWESGYNTRATNYNAGDRSTDYGIFQLNSRYWCNDGKTPGAVNACHLSCSALLQDNIADAVACAKRVVRDPQGIRAWVAWRNRCQNRDVRQYVQGCGV [I77L]	69.8 °C	1.31 kcal/mol/K	119 kcal/mol	128 kcal/mol

Same assay, conditions: Homo sapiens; pH 3.17; Thermal; DSC; glycine 0.05 M; reversible: yes; structure 1LZ1; whole UniProt chain shown

Variant	Tm	heat capacity change of unfolding	unfolding enthalpy (calorimetric)	unfolding enthalpy (van 't Hoff)
MKALIVLGLVLLSVTVQGKVFERCELARTLKRLGMDGYRGISLANWMCLAKWESGYNTRATNYNAGDRSTDYGIFQLNSRYWCNDGKTPGAVNACHLSCSALLQDNIADAVACAKRVVRDPQGIRAWVAWRNRCQNRDVRQYVQGCGV [I77L]	72.1 °C	1.24 kcal/mol/K	123 kcal/mol	132 kcal/mol
